Data as given in patent US20140342369A1.

Key:
Calnexin (Canx1) (mouse) [1] = target: Calnexin (Canx1) (mouse) (UniProt P35564); test: control pulldown (background; control not described), mass spectrometry of eluted proteins
[2] = target: Dolichyl-diphosphooligosaccharide--protein glycosyltransferase SU 1 (Rpn1) (mouse) (UniProt Q91YQ5); test: as above
[3] = target: Guanine nucleotide-binding protein G(i) subunit alpha-2 (Gnai2) (mouse) (UniProt P08752); test: as above
[4] = target: LYRIC (Mtdh, Metadherin) (mouse) (UniProt Q80WJ7); test: as above
Sequence of UniProt Q80WJ7 (Q80WJ7 whole entry): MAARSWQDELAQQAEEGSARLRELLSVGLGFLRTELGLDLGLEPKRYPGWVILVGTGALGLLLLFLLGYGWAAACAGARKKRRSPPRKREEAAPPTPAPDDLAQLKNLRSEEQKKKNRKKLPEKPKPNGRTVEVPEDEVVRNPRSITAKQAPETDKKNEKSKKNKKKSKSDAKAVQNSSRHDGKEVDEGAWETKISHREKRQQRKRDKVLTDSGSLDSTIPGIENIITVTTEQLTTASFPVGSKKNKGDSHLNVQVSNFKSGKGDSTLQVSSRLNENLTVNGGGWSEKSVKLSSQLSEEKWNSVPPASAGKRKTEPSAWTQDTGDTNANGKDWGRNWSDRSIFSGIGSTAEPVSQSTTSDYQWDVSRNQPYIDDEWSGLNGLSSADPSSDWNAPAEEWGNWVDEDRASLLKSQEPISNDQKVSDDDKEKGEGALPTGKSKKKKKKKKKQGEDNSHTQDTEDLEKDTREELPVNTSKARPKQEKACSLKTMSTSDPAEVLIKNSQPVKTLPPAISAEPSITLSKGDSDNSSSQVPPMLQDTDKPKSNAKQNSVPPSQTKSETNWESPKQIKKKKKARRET

[5] = target: Neurabin-1 (Ppp1r9a) (mouse) (UniProt Q7TN74); test: as above
Sequence of UniProt Q7TN74 (Q7TN74 entry or part of it): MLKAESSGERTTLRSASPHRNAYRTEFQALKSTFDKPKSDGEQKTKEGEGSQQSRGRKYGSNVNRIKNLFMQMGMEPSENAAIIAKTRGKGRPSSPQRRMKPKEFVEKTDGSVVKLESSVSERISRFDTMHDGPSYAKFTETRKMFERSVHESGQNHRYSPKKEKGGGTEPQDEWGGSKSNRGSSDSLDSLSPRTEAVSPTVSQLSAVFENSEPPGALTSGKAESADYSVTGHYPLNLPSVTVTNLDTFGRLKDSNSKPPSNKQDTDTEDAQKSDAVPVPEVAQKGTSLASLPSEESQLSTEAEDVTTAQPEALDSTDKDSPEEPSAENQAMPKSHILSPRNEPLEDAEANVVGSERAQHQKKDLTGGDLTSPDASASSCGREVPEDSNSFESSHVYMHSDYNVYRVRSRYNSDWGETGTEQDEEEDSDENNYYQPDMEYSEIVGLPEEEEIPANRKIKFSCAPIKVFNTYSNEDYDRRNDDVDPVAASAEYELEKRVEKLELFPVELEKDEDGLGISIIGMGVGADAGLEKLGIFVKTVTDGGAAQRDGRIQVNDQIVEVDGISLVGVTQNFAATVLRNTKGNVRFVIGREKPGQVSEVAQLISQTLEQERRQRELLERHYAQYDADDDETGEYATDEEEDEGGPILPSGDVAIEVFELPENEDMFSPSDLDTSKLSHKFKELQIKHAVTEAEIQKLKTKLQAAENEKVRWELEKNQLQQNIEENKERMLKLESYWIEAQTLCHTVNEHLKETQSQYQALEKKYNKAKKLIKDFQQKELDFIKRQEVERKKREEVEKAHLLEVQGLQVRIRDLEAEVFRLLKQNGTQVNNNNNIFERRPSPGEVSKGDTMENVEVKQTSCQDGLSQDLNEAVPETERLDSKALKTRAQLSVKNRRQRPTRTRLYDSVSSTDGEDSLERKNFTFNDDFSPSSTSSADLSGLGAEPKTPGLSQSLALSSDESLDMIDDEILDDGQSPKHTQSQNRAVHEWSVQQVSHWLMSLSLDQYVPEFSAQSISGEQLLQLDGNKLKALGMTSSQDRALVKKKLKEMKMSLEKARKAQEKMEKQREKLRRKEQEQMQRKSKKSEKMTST

[6] = target: Neurabin-2, Spinophilin (Ppp1r9b) (mouse) (UniProt Q6R891); test: as above
Sequence of UniProt Q6R891 (Q6R891 whole entry): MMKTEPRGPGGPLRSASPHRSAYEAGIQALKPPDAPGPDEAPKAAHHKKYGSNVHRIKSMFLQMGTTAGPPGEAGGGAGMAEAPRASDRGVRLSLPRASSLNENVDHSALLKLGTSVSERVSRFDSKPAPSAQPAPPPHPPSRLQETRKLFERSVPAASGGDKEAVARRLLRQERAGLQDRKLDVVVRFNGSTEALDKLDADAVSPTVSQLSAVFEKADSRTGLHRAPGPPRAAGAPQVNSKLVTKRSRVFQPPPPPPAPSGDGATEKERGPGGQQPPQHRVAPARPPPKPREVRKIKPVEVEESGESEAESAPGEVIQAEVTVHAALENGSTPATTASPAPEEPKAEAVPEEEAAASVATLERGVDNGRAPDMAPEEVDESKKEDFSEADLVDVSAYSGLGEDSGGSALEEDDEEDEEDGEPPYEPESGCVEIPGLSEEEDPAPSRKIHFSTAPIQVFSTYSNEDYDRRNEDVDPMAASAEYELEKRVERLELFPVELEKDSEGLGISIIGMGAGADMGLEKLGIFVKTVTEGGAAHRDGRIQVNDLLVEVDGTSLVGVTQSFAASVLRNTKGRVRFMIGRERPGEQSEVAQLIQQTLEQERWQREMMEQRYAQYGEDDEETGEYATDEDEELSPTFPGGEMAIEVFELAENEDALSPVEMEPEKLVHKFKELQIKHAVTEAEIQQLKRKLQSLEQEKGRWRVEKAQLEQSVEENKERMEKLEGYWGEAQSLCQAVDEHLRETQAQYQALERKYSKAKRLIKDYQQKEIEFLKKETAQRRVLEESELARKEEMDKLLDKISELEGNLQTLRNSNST

[7] = target: Solute carrier family 2, facilitated glucose transporter member 3 (Slc2a3) (mouse) (UniProt P32037); test: as above
Sequence of UniProt P32037 (P32037 whole entry): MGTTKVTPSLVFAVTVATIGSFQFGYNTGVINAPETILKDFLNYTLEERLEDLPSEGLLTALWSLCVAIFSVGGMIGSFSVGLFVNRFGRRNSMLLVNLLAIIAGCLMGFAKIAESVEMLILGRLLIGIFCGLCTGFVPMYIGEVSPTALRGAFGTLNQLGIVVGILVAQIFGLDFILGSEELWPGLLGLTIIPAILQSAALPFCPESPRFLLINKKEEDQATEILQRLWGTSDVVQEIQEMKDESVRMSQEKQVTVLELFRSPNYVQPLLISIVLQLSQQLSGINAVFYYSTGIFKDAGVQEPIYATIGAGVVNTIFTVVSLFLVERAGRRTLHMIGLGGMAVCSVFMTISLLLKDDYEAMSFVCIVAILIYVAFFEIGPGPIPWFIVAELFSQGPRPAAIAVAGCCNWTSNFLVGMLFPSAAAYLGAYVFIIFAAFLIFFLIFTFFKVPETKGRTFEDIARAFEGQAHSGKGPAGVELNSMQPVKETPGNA

Calnexin (Canx1) (mouse) [8] = target: Calnexin (Canx1) (mouse) (UniProt P35564); test: anti-HA pulldown of tagged Gpr107 from whole cell lysate, mass spectrometry of eluted proteins
[9] = target: Dolichyl-diphosphooligosaccharide--protein glycosyltransferase SU 1 (Rpn1) (mouse) (UniProt Q91YQ5); test: as above
[10] = target: Guanine nucleotide-binding protein G(i) subunit alpha-2 (Gnai2) (mouse) (UniProt P08752); test: as above
[11] = target: LYRIC (Mtdh, Metadherin) (mouse) (UniProt Q80WJ7); test: as above
[12] = target: Neurabin-1 (Ppp1r9a) (mouse) (UniProt Q7TN74); test: as above
[13] = target: Neurabin-2, Spinophilin (Ppp1r9b) (mouse) (UniProt Q6R891); test: as above
[14] = target: Solute carrier family 2, facilitated glucose transporter member 3 (Slc2a3) (mouse) (UniProt P32037); test: as above

Sequence of UniProt P08752 (P08752 2-355 limits assumed): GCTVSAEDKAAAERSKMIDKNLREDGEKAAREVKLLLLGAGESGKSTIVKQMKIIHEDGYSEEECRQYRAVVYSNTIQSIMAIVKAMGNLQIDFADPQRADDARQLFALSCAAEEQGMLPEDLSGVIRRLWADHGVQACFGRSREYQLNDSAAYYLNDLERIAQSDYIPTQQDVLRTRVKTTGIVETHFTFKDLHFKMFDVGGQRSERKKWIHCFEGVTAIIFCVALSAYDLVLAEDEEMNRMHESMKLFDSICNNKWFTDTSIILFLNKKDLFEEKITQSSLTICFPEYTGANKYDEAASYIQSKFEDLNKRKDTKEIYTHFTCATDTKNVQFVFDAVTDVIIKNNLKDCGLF
Sequence of UniProt Q91YQ5 (Q91YQ5 26-608 limits assumed): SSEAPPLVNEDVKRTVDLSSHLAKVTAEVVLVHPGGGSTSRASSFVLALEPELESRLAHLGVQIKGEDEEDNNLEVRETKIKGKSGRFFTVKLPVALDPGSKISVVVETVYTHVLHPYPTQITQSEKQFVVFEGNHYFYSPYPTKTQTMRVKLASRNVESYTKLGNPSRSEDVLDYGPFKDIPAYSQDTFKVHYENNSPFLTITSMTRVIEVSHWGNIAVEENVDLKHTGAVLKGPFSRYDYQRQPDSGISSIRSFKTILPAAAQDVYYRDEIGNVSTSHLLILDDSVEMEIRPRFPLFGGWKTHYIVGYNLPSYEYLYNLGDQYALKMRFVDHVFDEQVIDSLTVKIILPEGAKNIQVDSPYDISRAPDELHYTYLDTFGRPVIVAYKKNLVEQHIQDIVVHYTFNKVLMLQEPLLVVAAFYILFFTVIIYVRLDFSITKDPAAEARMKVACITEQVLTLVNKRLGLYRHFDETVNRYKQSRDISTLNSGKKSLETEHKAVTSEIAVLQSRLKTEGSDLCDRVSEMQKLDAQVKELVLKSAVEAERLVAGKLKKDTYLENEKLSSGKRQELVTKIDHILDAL
Sequence of UniProt P35564 (P35564 21-591 limits assumed): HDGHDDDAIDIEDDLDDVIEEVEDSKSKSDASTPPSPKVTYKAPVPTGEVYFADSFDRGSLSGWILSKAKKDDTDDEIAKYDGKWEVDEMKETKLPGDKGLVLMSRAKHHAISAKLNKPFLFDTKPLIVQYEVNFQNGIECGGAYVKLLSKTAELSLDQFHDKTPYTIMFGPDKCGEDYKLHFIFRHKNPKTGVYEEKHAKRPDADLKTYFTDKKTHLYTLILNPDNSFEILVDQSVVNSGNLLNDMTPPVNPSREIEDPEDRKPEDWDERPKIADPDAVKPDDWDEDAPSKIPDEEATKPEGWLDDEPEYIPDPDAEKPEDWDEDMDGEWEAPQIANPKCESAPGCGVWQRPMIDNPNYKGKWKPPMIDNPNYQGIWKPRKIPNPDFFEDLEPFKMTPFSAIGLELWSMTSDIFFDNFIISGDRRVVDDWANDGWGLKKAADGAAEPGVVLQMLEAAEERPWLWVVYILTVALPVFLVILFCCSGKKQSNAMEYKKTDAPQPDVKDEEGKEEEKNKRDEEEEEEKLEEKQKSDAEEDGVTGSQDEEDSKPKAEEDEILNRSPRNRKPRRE

peptides control (Calnexin (Canx1) (mouse) [1]): 3 peptides
peptides control [2]: 3 peptides
peptides control [3]: 0 peptides
peptides control [5]: 0 peptides
peptides control [6]: 8 peptides
peptides control [7]: 0 peptides
peptides sample (Calnexin (Canx1) (mouse) [8]): 7 peptides
peptides sample [9]: 8 peptides
peptides sample [10]: 19 peptides
peptides sample [12]: 13 peptides
peptides sample [13]: 136 peptides
peptides sample [14]: 5 peptides
Substance: C-terminally tagged (mCherry, Ha, myc) version of Gpr107 (G protein coupled receptor 107) (from UniProt Q8BUV8 34-551)
peptides control [4]: 0 peptides
peptides sample [11]: 46 peptides
